{"source": "paper PMC10090120", "about": "“Cryo-EM structures of mitochondrial ABC transporter ABCB10 in apo and biliverdin-bound form” (Nature Communications, 2023)", "molecular_target": "the molecule itself", "experiment": "cryo-EM structure; ABCB10 E659Q at ~4 mg/mL in 50 mM HEPES pH 7.5, 150 mM NaCl, 0.005% GDN, 0.0005% CHS, incubated with 1 mM biliverdin for 30 min and vitrified; BV-free (apo) and BV-bound maps from a single data set; C2 symmetry", "data": [{"protein": "human ABCB10 (residues A152-A738) E659Q mutant (domain or fragment, UniProt Q9NRK6 152-738, looked up, E659Q in the Walker-B motif; The vector adds a C-terminal TEV protease site before the FLAG and 10xHis tags; no cleavage is described; The model of ABCB10-apo covers residues 156-724 (528-532 missing), that of ABCB10-BV residues 154-724 (629-631 missing); also called ABCB10 E659Q; ABCB10-apo) AGLPEARKLLGLAYPERRRLAAAVGFLTMSSVISMSAPFFLGKIIDVIYTNPTVDYSDNLTRLCLGLSAVFLCGAAANAIRVYLMQTSGQRIVNRLRTSLFSSILRQEVAFFDKTRTGELINRLSSDTALLGRSVTENLSDGLRAGAQASVGISMMFFVSPNLATFVLSVVPPVSIIAVIYGRYLRKLTKVTQDSLAQATQLAEERIGNVRTVRAFGKEMTEIEKYASKVDHVMQLARKEAFARAGFFGATGLSGNLIVLSVLYKGGLLMGSAHMTVGELSSFLMYAFWVGISIGGLSSFYSELMKGLGAGGRLWELLEREPKLPFNEGVILNEKSFQGALEFKNVHFAYPARPEVPIFQDFSLSIPSGSVTALVGPSGSGKSTVLSLLLRLYDPASGTISLDGHDIRQLNPVWLRSKIGTVSQEPILFSCSIAENIAYGADDPSSVTAEEIQRVAEVANAVAFIRNFPQGFNTVVGEKGVLLSGGQKQRIAIARALLKNPKILLLDQATSALDAENEYLVQEALDRLMDGRTVLVIAHRLSTIKNANMVAVLDQGKITEYGKHEELLSKPNGIYRKLMNKQSFISA", "values": [{"measurement": "stoichiometry N", "value": 2}]}]}
